# Test results taken from patent publication US20170015742A1 (published 2017).
# Where a chain is given by its changes, count along the chain named.
# B1: CODV015 (bispecific antibody, human IgG1, kappa, L234A L235A)
# heavy: EVQLVQSGSELKKPGASVKVSCKASGYTFTNYGMYWVRQAPGQGLEWMGWINTETGKPTYADDFKGRFVFSLDTSVSTAYLQISSLKAEDTAVYYCARTNYYYRSYIFYFDYWGQGTMVTVSSGGGGSGGGEFVLTQSPGTLSLSPGERATLSCERSSGDIGDSYVSWYQQKPGQAPRLVIYADDQRPSGIPDRFSGSGSGTDFTLTISRLEPEDFAVYYCQSYDINIDIVFGGGTKVEIKGGGSGASTKGPSVFPLAPSSKSTSGGTAALGCLVKDYFPEPVTVSWNSGALTSGVHTFPAVLQSSGLYSLSSVVTVPSSSLGTQTYICNVNHKPSNTKVDKKVEPKSCDKTHTCPPCPAPEAAGGPSVFLFPPKPKDTLMISRTPEVTCVVVDVSHEDPEVKFNWYVDGVEVHNAKTKPREEQYNSTYRVVSVLTVLHQDWLNGKEYKCKVSNKALPAPIEKTISKAKGQPREPQVYTLPPSREEMTKNQVSLTCLVKGFYPSDIAVEWESNGQPENNYKTTPPVLDSDGSFFLYSKLTVDKSRWQQGNVFSCSVMHEALHNAYTQKSLSLSPGK
# light: EVTLRESGPALVKPTQTLTLTCTFSGFSLSTYGMGVGWIRQPPGKALEWLANIWWDDDKYYNPSLKNRLTISKDTSKNQVVLTMTNMDPVDTATYYCARIESIGTTYSFDYWGQGTMVTVSSGGGGSGGGDTVLTQSPATLSLSPGERATLSCRASESVSTHMHWYQQKPGQAPRLLIYGASNLESGVPARFSGSGSGTDFTLTISSLEPEDFAVYFCQQSWNDPFTFGQGTKLEIKGGSRTVAAPSVFIFPPSDEQLKSGTASVVCLLNNFYPREAKVQWKVDNALQSGNSQESVTEQDSKDSTYSLSSTLTLSKADYEKHKVYACEVTHQGLSSPVTKSFNRGEC
# notes: Anti-human VEGF-A/anti-human PDGF-BB cross-over DVD-Ig (CO-DVD-Ig); also called PR-1571827
# B2: CODV021 (bispecific antibody, human IgG1, kappa, L234A L235A)
# heavy: B1 heavy with D163E
# light: B1 light
# notes: Anti-human VEGF-A/anti-human PDGF-BB cross-over DVD-Ig (CO-DVD-Ig); also called PR-1577053
# B3: CODV014 (bispecific antibody, human IgG1, kappa, L234A L235A)
# heavy: EVQLVQSGSELKKPGASVKVSCKASGYTFTNYGMYWVRQAPGQGLEWMGWINTETGKPTYADDFKGRFVFSLDTSVSTAYLQISSLKAEDTAVYYCARTNYYYRSYIFYFDYWGQGTMVTVSSGGGGSEFVLTQSPGTLSLSPGERATLSCERSSGDIGDSYVSWYQQKPGQAPRLVIYADDQRPSGIPDRFSGSGSGTDFTLTISRLEPEDFAVYYCQSYDINIDIVFGGGTKVEIKGGSASTKGPSVFPLAPSSKSTSGGTAALGCLVKDYFPEPVTVSWNSGALTSGVHTFPAVLQSSGLYSLSSVVTVPSSSLGTQTYICNVNHKPSNTKVDKKVEPKSCDKTHTCPPCPAPEAAGGPSVFLFPPKPKDTLMISRTPEVTCVVVDVSHEDPEVKFNWYVDGVEVHNAKTKPREEQYNSTYRVVSVLTVLHQDWLNGKEYKCKVSNKALPAPIEKTISKAKGQPREPQVYTLPPSREEMTKNQVSLTCLVKGFYPSDIAVEWESNGQPENNYKTTPPVLDSDGSFFLYSKLTVDKSRWQQGNVFSCSVMHEALHNAYTQKSLSLSPGK
# light: EVTLRESGPALVKPTQTLTLTCTFSGFSLSTYGMGVGWIRQPPGKALEWLANIWWDDDKYYNPSLKNRLTISKDTSKNQVVLTMTNMDPVDTATYYCARIESIGTTYSFDYWGQGTMVTVSSGGGGSGGGDTVLTQSPATLSLSPGERATLSCRASESVSTHMHWYQQKPGQAPRLLIYGASNLESGVPARFSGSGSGTDFTLTISSLEPEDFAVYFCQQSWNDPFTFGQGTKLEIKGGGSGRTVAAPSVFIFPPSDEQLKSGTASVVCLLNNFYPREAKVQWKVDNALQSGNSQESVTEQDSKDSTYSLSSTLTLSKADYEKHKVYACEVTHQGLSSPVTKSFNRGEC
# notes: Anti-human VEGF-A/anti-human PDGF-BB cross-over DVD-Ig (CO-DVD-Ig); also called PR-1571826
# Target: T1, Human VEGF-A 165 (human, UniProt P15692 207-395)
# T1 construct: also called hVEGF165
# Experiment: SPR (Biacore), method of Example 1.1
# Protocol: (§1) Unreacted moieties on the biosensor surface were blocked with ethanolamine. For kinetic analysis, rate equations derived from the 1:1 Langmuir binding model were fitted simultaneously to multiple antigen injections (using global fit analysis) with the use of Scrubber 2 (BioLogic Software), Biacore Biaevaluation 4.0.1 software or Biacore T100 Evaluation software. Purified antibodies or DVD-Ig molecules were diluted in running buffer for capture across goat anti-human Fc reaction surfaces. Antibodies or DVD-Ig molecules to be captured as a ligand (1 μg/ml) were injected over reaction matrices at a flow rate of 10 μl/minute. During the assay, all measurements were referenced against the capture surface alone (i.e., with no captured antibody or DVD-Ig molecule). […] The equilibrium dissociation constant KD (M) of the reaction between antibodies and the target antigen was then calculated from the kinetic rate constants by the following formula: KD=Koff/Kₒₙ. Binding was recorded as a function of time and kinetic rate constants were calculated. In this assay, on-rates as fast as 10⁶M⁻¹s⁻¹ and off-rates as slow as 10⁻⁶ s⁻¹ could be measured.
# T1 sequence (P15692 other isoform, or with tags, fused parts or gaps limits assumed): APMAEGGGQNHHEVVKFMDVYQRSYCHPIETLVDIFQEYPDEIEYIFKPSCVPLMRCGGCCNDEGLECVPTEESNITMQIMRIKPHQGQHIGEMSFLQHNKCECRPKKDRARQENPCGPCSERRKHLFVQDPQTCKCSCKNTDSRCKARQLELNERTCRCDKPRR
Kd,kon,Binder
0.024 nM,2.7e+06 M⁻¹ s⁻¹,B1
0.018 nM,3.8e+06 M⁻¹ s⁻¹,B2
0.036 nM,2.2e+06 M⁻¹ s⁻¹,B3

# Target: T2, Human PDGF-BB (human, UniProt P01127 82-190)
# T2 construct: also called hPDGF-BB
# Experiment: SPR (Biacore), method of Example 1.1
# Protocol: as §1
# T2 sequence (P01127 82-190 limits assumed): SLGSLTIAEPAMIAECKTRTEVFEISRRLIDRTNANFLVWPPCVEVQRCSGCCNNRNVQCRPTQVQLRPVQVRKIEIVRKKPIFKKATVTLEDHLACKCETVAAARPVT
Kd,kon,Binder
1.3 pM,7e+07 M⁻¹ s⁻¹,B1
1.9 pM,6.1e+07 M⁻¹ s⁻¹,B2
2.4 pM,5.5e+07 M⁻¹ s⁻¹,B3
